These results are taken from patent US20230226096A1 (Orna Therapeutics, Inc., priority 2020, published 2023).

The subject of this data set is HEK293 cells. It counts as cell-based, human. The conditions noted are these: luminescence from secreted Gluc in supernatant 24 hours after transfection of HEK293 cells; circular RNA encoding Gluc with the named IRES (UTR truncated to 675 nt).

B1: Tottorivirus (nucleic acid, listed as Tottorivirus sp.)
DNA: CCCCTTTACGTAACTGCAACTTAAAGAGTACCCTACTGCATTGGATGTGTGGTAAACTTTTACGCACACATTTGTAGTAGTGTTAGTTATGTTCTACCTAATGAGTATGCATGCACCCGTCGAAACACGCTTGTGATAAGATAGGTGAGTCCATGTGACTAATCTCATTAAGATAAATAAGCACCCTACAACGCACGGCACGCTCGTGTCTTCCGTGCGGGGCCGGGACAACAGCGGCCTAAATCTTCTAGGTGACCACCATGCTTTTGGGACTATGGCACCACTGTGGACGTGAGTACCTGGCAGTAAGTCTGTGAAAAGATGGAAGGTGTCCCAAGCTATGGGGCGTATGCATATAGCCTGCGGAACAAACAACGGCGACGTTGTCCCCAGGGCCCAAAAGGCACGTGGATAAGATCCACCTATATGTTTACCCCATAGTGTAAGTCACTGGAAGTCCTAGTAATGGATGTCTGGAGTAAGGCTCACGGGGTAGGGCGAAGGATGCCCAGAAGGTACCCGTAGGTAACCTTAAGAGACTATGGATCTGATCTGGGGACCGGATGGCGCCATCACCATGACGTGGAGGCCGGTTTAAAAAACGTCTAAGCCCGACCAACAACCTAGGGGACTAGGTTTTCCTTTTTTATTCATGTATGACGTT
B1 displayed an Expression of 2.76E+07.

B2: 18-675 (nucleic acid)
DNA: CCCACAGCAAGAATGCCATCATCTGTCCTCACCCCCAATTTTCCCTTTTCTTCCCCTGCAACCATTACGCTTACTCGCATGTGCATTGAGTGGTGCATGTGTTGAACAAACAGCTACACTCACATGGGGGCGGGTTTTCCCGCCCTACGGCCTCTCGCGAGGCCCACCCCTTCCCTCCCCTTATAACTACAGTGCTTTGGTAGGTAAGCATCCTGATCCCCCGCGGAAGCTGCTCACGTGGCAACTGTGGGGACCCAGACAGGTTATCAAAGGCACCCGGTCTTTCCGCCTTCAGGAGTATCCCTACTAGTGAATTCTAGCGGGGCTCTGCTTGGTGCCAACCTCCCCCAAATGCGCGCTGCGGGAGTGCTCTTCCCCAACTCACCCTAGTATCCTCTCATGTGTGTGCTTGGTCAGCATATCTGAGACGATGTTCCGCTGTCCCAGACCAGTCCAGTAATGGACGGGCCAGTGCGTGTAGTCGTCTTCCGGCTTGTCCGGGGCATGTTTGGTGAACCGGTGGGGTAAGGTTGGTGTGCCCAACGCCCGTACTTTGGTGACACCTCAAGACCACCCAGGAATGCCAGGGAGGTACCCCACCTCACGGTGGGATCTGACCCTGGGCTAATTGTCTACGGTGGTTCTTCTTGCTTCCACTTCTTTCTTCTGTTCACG
Consider B2, for which the Expression came to 6.04E+07.

B3: SVV (nucleic acid)
DNA: CTGGGCCCTCATGCCCAGTCCTTCCTTTCCCCTTCCGGGGGGTAAACCGGCTGTGTTTGCTAGAGGCACAGAGGAGCAACATCCAACCTGCTTTTGTGGGGAACGGTGCGGCTCCAATTCCTGCGTCGCCAAAGGTGTTAGCGCACCCAAACGGCGCATCTACCAATGCTATTGGTGTGGTCTGCGAGTTCTAGCCTACTCGTTTCTCCCCTATCCACTCACTCACGCACAAAAAGTGTGCTGTAATTACAAGATTTAGCCCTCGCACGAGATGTGCGATAACCGCAAGATTGACTCAAGCGCGGAAAGCGCTGTAACCACATGCTGTTAGTCCCTTCATGGCTGCGAGATGGCTATCCACCTCGGATCACTGAACTGGAGCTCGACCCTCCTTAGTAAGGGAACCGAGAGGCCTTCTTGCAACAAGCTCCGACACAGAGTCCACGTGATTGCTACCACCATGAGTACATGGTTCTCCCCTCTCGACCCAGGACTTCTTTTTGAATATCCACGGCTCGATCCAGAGGGTGGGGCATGATCCCCCTAGCATAGCGAGCTACAGCGGGAACTGTAGCTAGGCCTTAGCGTGCCTTGGATACTGCCTGATAGGGCGACGGCCTAGTCGTGTCGGTTCTATAGGTAGCACATACAAAT
B3 had an Expression of 1.06E+06.

B4: Posavirus 1 (nucleic acid)
DNA: ACATTTCCTTGCGTGCGCACCCGAAAATTTATTGAACTTGGCTTGAATCATAAGTAATGCTTCTTATAGCGGACACTTTGAGAATATAATGCTTGTATGGATTAATGTATACTGTTTTAAATAACAAACCTAGACACGCAGTTGCGTTGATGGTTGTATCAATCACATATAAGTGTTGAACTCGTGTTAATCCTCGATCGCTATATGTTTGCCGCCTACTTCCAATAAAATAGATTACATGCGCGTCATGCCTTTGTGGGTTACCTATTGGCCTCTGACAAAAACAAGTCGTAAGATTTGTAGCTTCCCGGTGTAAAAAGCTGGGCGCGGTCTGGCTCTCGTAGGGTGGAAAGGTCCACCAATGGCTGGTTGAGTGTAAGCTCCGGTGTCCTGGTTGTCGCAATTCCAGGCGTCGTAATAACCTATATTGCATCTGACTCTAACTCTTGTGGCTCTACTGTATCTAGTTCTTGTTCTACTAACTCTAATAATACTACTGGCTCTAATACTGAAAAACTTACATATGTTAATATAGATAATATCCTTGATCCTGATATCCCTCACGTCACTGAAGTTCGCCGAAAACGAATTTCAGATCATATCATTGAATCTCAAGGATGTACTTGCTCTGAACCTACTATAACTCCTCATGCGTTTTCATTTTCTACTCTTGGC
Turning to B4, the Expression amounted to 1.55E+06.

B5: A105-675 (nucleic acid)
DNA: CCACCCACAGCAAGAATGCCATCATCTGTCCTCACCCCCATTTCTCCCCTCCTTCCCCTGCAACCATTACGCTTACTCGCATGTGCATTGAGTGGTGCACGTGTTGAACAAACAGCTACACTCACGTGGGGGCGGGTTTTCCCGCCCTTCGGCCTCTCGCGAGGCCCACCCTTCCCCTTCCTCCCATAACTACAGTGCTTTGGTAGGTAAGCATCCTGATCCCCCGCGGAAGCTGCTCGCGTGGCAACTGTGGGGACCCAGACAGGTTATCAAAGGCACCCGGTCTTTCCGCCTCCAGGAGTATCCCTGCTAGTGAATTCTAGTGGGGCTCTGCTTGGTGCCAACCTCCCCCAAATGCGCGCTGCGGGAGTGCTCTTCCCCAACTCACCCTAGTATCCTCTCATGTGTGTGCTTGGTCAGCATATCTGAGACGATGTTCCGCTGTCCCAGACCAGTCCAGCAATGGACGGGCCAGTGTGCGTAGTCGTCTTCCGGCTTGTCCGGCGCATGTTTGGTGAACCGGTGGGGTAAGGTTGGTGTGCCCAACGCCCGTACTTTGGTGACAACTCAAGACCACCCAGGAATGCCAGGGAGGTACCCCGCCTCACGGCGGGATCTGACCCTGGGCTAATTGTCTACGGTGGTTCTTCTTGCTTCCATTTCTTTCTTCTGTTC
Take B5: the Expression is on record as 2.18E+07.

B6: PTV B (nucleic acid)
DNA: CTTCCTTTTAATTCGTAACTGATAAGTGATAGTCCTTGGAAGCTAGGTATTTGTTACGCTAGTTTTGGATTATCTTGTGCCCAACATTTGTTTTCGAACATATGTTGTGTTTAAACACAGAAATCTAGTTTCTTTGGTTATGAGTTTAATGGAATATCCTTTTGAAAGACTTGCCTTGGCGCGGGCTAGAGCGCAATTGTCACCAGGTATTGCACCAATGGTGGCGACAGGGTACAGAAGAGCAAGTACTCCTGACTGGGTAATGGGACTGCATTGCATATCCCTAGGCATCTATTGAGATTTCTCTGGAGCCCACCAGCATGGAGTTCCTGTATGGGAATGCAGGACTGGACTTGTGCTGCCTGACAGGGTCGCGGCTGGCCGTCTGTACTTTGTATAGTCAGTTGAAACTCATT
modifications: Teschovirus B
In turn, B6 displayed an Expression of 6.02E+06.

B7: A110-675 (nucleic acid)
DNA: ACCTTTGTGCGCCTGTTTTATACCCCCTCCCCCAACTGTAACTTAGAAGTAACACACACCGATCAACAGTCAGCGTGGCACACCAGCCACGTTTTGATCAAGCACTTCTGTTACCCCGGACTGAGTATCAATAGACTGCTCACGCGGTTGAAGGAGAAAGCGTTCGTTATCCGGCCAACTACTTCGAAAAACCTAGTAACACCGTGGAAGTTGCAGAGTGTTTCGCTCAGCACTACCCCAGTGTAGATCAGGTCGATGAGTCACCGCATTCCCCACGGGCGACCGTGGCGGTGGCTGCGTTGGCGGCCTGCCCATGGGGAAACCCATGGGACGCTCTAATACAGACATGGTGCGAAGAGTCTATTGAGCTAGTTGGTAGTCCTCCGGCCCCTGAATGCGGCTAATCCTAACTGCGGAGCACACACCCTCAAGCCAGAGGGCAGTGTGTCGTAACGGGCAACTCTGCAGCGGAACCGACTACTTTGGGTGTCCGTGTTTCATTTTATTCCTATACTGGCTGCTTATGGTGACAATTGAGAGATCGTTACCATATAGCTATTGGATTGGCCATCCGGTGACTAATAGAGCTATTATATATCCCTTTGTTGGGTTTATACCACTTAGCTTGAAAGAGGTTAAAACATTACAATTCATTGTTAAGTTGAATACAGCAAA
Take B7: the Expression worked out at 1.24E+08.

B8: Tropivirus A (nucleic acid)
DNA: TGTCGCATGTTGCCAACATCAAAATTCTGGGAGAGTCGCGAACTCCTTAACACTGCCTTGCCTCGACGGAGCCGTTGTTATAGTGTCGACGGGATACAAACATTAAACTAAACCCACTTGCCTCGACGGAACCCCTTACCTTTTATTTTATTTTATAGTATGAAAGTGAATCTTGTATGAATGTTCATAGAAAACTGCAAATGAGTACCACGTCTAACATGAGAGAATGATACTGGAGAAATCCAAGTTTAGAAGTCACTACGAATCCCAGCGGAAACAAGGGAATTCTGAGCTTCTAATAGGCGTTTAAGACTATTTGCAAAATTCTGGTGCGTAAGTGATATTTTCATTGCGTAGAACGCTGGTAACCACTCCGGCTAGTATAAGCATTGTTAGTCACTTATTATGAAACTCCACACTATCCTTTCTGGAGAAGCACACAAACTTACATGGTAAAGCTAGACCATTATCTTAAGCGGTGAGTACACTGCAACCTTGTAACAATGCTTGTATGACTACTTTTTGTATATCTTGAGCAATATTGTTGAGGTGGACATGTCCAAAGGTAATGTTGTTGGGAATGGAGGGGTCCATTTTCCCGTGCACGTAGTGTACTAGTATTGGGTGATAGCCTTGCGGCGGATCAACCATGTATTTTAATCCGTTGACTTTCAC
modifications: Tropivirus A
In turn, B8 returned an Expression of 9.52E+04.

B9: PTV A (nucleic acid)
DNA: ACTAGTCCTTGGACTTTTGTTGTGTTTAAACACAGAAATTTAATTACCTGGCCATGAATTCATTGGATTAACCCTTCTGAAAGACTTGCTCTGGCGCGAGCTAAAGCGCAATTGTCACCAGGTATTGCACCAGTGGTGGCGACAGGGTACAGAAGAGCAAGTACTCCTGACCGGGCAATGGGACTGCATTGCATATCCCTAGGCACCTATTGAGATTTCTCTGGGGCCCACCGGCGTGGAGTTCCTGTATGGGAATGCAGGACTGGACTTGTGCTGCCTGACAGGGTCGCGGCTGGCCGTCTGTACTTTGTATAGTCAGTTGAAACTCACC
modifications: Teschovirus A
B9: the Expression came to 7.29E+05.
